Reference: paper PMC5306213, “Common Distribution of gad Operon in Lactobacillus brevis and its GadA Contributes to Efficient GABA Synthesis toward Cytosolic Near-Neutral pH” (Frontiers in Microbiology, 2017)

B1: Lb. plantarum GadB (Lactiplantibacillus plantarum WCFS1) (protein)
chain: MAMLYGKHNHEAEEYLEPVFGAPSEQHDLPKYRLPKHSLSPREADRLVRDELLDEGNSRLNLATFCQTYMEPEAVELMKDTLAKNAIDKSEYPRTAEIENRCVNIIANLWHAPDDEHFTGTSTIGSSEACMLGGLAMKFAWRKRAQAAGLDLNAHRPNLVISAGYQVCWEKFCVYWDVDMHVVPMDEQHMALDVNHVLDYVDEYTIGIVGIMGITYTGQYDDLAALDKVVTHYNHQHPKLPVYIHVDAASGGFYTPFIEPQLIWDFRLANVVSINASGHKYGLVYPGVGWVVWRDRQFLPPELVFKVSYLGGELPTMAINFSHSAAQLIGQYYNFIRFGMDGYREIQTKTHDVARYLAAALDKVGEFKMINNGHQLPLICYQLASREDREWTLYDLSDRLLMNGWQVPTYPLPANLEQQVIQRIVVRADFGMNMAHDFMDDLTKAVHDLNHAHIVYHHDAAPKKYGFTH
notes: recombinant in E. coli from pET-28a(+), +GSHM at N-terminus (left after tag cleavage, details in supplement); start MAMLYGKH (from primer); about 54 kDa from kcat/Vmax; dimer per cited work
B2: Lb. brevis GadA (WT) (Levilactobacillus brevis ATCC 367) (protein)
chain: MNKNDQETQQMINNVDLEKTFLGSVEAGQSLPTNTLPDDPMAPDVAAQLVEHYRLNEAKANQNLATFCTTQMEPQADELMKNALNTNAIDKSEYPKTAAMENYCVSMIAHLWGIPDNEKIYDDFIGTSTVGSSEGCMLGGLALLHSWKHRAKAAGFDIEDLHSHKPNLVIMSGYQVVWEKFCTYWNVEMRQVPINGDQVSLDMDHVMDYVDENTIGIIGIEGITYTGSVDDIQTLDNLVTEYNKTATMPVRIHVDAAFGGLFAPFVDGFNPWDFRLKNVVSINVSGHKYGMVYPGLGWIVWRHNTADILPAEMRFQVPYLGKTVDSIAINFSHSGAHISAQYYNFIRFGLSGYKTIMQNVRKVSLKLTAALKTYGIFDILVDGSQLPINCWKLADDAPVGWTLYDLESELAKYGWQVPAYPLPKNRDDVTISRIVVRPSMTMTIADDFLDDLKLAIDGLNHTFGVTTTVDQDNKTTVRS
notes: recombinant in E. coli from pRSETA-SUMO with N-terminal His-SUMO tag (tag removal told only in supplement); native N-terminus MNKNDQET (from primer); tetramer per cited work

Legend:
[1] = substrate: N[C@@H](CCC(=O)O)C(=O)O; experiment: glutamate decarboxylation assay, Michaelis-Menten fit; assay type: biochemical, Lactiplantibacillus plantarum; conditions: pH 4.8, 60 °C, McIlvaine (citrate-phosphate) buffer, PLP, glutamate 0.9-36 mM
Source text: glutamate decarboxylation assay, Michaelis-Menten fit on Lb. plantarum GadB

[2] = substrate: N[C@@H](CCC(=O)O)C(=O)O; experiment: as above; assay type: biochemical, Levilactobacillus brevis; conditions: pH 4.8, 45 °C, sulfate buffer (0.8 M sodium sulfate, 50 mM sodium acetate), PLP, glutamate 0.9-36 mM
Source text: glutamate decarboxylation assay, Michaelis-Menten fit on Lb. brevis GadA (WT)

Row | Protein | Km [1] | Vmax [1] | kcat [1] | kcat/Km [1] | Km [2] | Vmax [2] | kcat [2] | kcat/Km [2]
1 | B1 | 20.02 ± 2.557 mM | 73.3 µmol/min/mg | 65.9 ± 4.2 s⁻¹ | 3290 M⁻¹ s⁻¹ | – | – | – | –
2 | B2 | – | – | – | – | 26.95 ± 2.437 mM | 9.16 µmol/min/mg | 8.17 ± 0.405 s⁻¹ | 303 M⁻¹ s⁻¹
